Patent US20190225675A1 (TUFTS UNIVERSITY, published 2019)
Read-outs that look alike come from different tables or passages of the source.

Legend:
[1] = biological target: T1, Shiga-like toxin 2 (Stx2) (UniProt P09385 23-319; P09386 20-89)
T1 sequence 1: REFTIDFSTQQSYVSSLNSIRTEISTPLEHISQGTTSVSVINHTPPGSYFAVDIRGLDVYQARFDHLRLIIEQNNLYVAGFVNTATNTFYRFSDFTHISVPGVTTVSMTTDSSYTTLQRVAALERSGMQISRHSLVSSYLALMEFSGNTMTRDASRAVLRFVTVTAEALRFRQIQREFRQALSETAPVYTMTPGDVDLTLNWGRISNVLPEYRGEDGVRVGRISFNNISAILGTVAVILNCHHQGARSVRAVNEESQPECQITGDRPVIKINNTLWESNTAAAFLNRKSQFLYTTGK
T1 sequence 2: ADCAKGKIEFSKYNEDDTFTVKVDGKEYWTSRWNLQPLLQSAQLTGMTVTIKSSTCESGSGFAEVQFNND

[2] = biological target: T1, Shiga-like toxin 2 (Stx2); remark: listed apart in the source
[3] = biological target: T1, Shiga-like toxin 2 (Stx2); remark: listed apart in the source
[4] = biological target: T2, Botulinum neurotoxin serotype A1 (BoNT/A) holotoxin (Clostridium botulinum, UniProt P0DPI0 2-1296); assay: VHH selection; binding competition
T2 construct: mature

[5] = biological target: T2, Botulinum neurotoxin serotype A1 …; assay: method not stated
[6] = biological target: T1, Shiga-like toxin 2 (Stx2); remark: listed apart in the source
[7] = biological target: anthrax protective antigen (PA) (Bacillus anthracis, UniProt P13423 30-764); assay: legend of FIG. 29A: VHHs identified that bind each target as indicated
[8] = biological target: T3, Clostridium difficile toxin A (TcdA) (Clostridium difficile, UniProt P16154 1-2710); assay: ELISA on plates coated with TcdA, HRP-conjugated detection antibody, A450
T3 construct: mature

[9] = biological target: T4, Clostridium difficile toxin B (TcdB) (Clostridium difficile, UniProt P18177 2-2366); assay: ELISA, toxin-coated plates, HRP-conjugated detection antibody
T4 construct: mature
T4 sequence (P18177 2-2366): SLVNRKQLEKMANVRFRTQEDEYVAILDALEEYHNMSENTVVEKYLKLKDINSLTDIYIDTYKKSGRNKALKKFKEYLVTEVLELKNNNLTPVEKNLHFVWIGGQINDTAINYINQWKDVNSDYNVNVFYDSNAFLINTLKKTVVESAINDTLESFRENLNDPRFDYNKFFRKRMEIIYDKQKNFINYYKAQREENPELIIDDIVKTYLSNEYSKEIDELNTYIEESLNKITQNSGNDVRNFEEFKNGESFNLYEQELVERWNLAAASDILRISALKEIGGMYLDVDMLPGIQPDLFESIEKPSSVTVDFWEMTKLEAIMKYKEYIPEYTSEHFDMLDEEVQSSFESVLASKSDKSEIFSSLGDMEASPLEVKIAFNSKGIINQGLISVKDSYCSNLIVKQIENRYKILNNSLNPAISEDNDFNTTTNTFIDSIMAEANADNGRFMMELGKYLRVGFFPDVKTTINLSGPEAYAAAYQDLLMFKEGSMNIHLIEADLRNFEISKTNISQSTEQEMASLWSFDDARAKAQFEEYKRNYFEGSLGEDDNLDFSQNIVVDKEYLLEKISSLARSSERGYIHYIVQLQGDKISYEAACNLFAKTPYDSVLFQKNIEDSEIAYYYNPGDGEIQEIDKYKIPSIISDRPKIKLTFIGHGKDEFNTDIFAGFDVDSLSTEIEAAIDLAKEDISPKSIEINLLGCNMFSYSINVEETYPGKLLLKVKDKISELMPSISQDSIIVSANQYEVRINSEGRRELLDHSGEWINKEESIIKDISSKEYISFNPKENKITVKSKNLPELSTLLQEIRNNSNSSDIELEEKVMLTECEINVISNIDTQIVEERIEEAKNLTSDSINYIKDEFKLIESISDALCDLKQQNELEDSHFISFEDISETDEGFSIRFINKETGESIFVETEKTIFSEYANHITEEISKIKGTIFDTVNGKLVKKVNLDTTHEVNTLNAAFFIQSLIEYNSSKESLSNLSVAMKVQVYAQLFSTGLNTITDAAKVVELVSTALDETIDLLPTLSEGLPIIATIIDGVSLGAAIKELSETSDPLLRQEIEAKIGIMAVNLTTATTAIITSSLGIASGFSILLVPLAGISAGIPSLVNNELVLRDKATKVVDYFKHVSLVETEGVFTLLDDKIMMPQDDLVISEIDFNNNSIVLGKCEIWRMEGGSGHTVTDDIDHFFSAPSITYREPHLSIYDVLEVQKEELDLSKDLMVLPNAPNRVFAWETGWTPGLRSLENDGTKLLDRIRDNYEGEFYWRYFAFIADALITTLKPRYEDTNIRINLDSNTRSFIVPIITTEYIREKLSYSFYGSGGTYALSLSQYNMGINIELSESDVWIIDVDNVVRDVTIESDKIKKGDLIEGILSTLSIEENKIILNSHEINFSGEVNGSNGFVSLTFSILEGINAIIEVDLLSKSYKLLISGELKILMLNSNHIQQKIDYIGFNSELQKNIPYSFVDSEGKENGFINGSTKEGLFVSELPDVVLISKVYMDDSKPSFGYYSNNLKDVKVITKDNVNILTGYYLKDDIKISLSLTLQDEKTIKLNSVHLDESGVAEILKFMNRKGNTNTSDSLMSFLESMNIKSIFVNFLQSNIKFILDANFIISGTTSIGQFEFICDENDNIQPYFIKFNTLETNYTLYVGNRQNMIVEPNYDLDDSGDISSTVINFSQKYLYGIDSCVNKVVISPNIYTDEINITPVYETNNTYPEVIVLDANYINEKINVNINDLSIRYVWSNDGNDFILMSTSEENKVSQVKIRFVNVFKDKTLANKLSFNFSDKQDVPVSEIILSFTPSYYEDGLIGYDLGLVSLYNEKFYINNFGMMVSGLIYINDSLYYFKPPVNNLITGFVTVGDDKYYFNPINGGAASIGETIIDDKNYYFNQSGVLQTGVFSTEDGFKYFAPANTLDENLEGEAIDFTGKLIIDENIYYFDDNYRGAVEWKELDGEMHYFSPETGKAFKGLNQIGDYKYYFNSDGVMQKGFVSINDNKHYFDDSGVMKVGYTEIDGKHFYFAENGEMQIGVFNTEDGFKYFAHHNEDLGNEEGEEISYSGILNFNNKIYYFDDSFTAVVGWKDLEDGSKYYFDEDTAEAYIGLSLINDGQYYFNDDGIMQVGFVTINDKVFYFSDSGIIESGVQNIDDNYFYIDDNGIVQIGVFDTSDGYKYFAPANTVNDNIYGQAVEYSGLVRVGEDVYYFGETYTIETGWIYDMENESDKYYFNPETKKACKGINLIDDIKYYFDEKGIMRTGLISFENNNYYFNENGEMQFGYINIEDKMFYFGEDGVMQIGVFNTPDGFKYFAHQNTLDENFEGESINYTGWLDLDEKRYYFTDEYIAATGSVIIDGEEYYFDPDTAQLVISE

anthrax protective antigen (PA), sequence (P13423 30-764 limits assumed): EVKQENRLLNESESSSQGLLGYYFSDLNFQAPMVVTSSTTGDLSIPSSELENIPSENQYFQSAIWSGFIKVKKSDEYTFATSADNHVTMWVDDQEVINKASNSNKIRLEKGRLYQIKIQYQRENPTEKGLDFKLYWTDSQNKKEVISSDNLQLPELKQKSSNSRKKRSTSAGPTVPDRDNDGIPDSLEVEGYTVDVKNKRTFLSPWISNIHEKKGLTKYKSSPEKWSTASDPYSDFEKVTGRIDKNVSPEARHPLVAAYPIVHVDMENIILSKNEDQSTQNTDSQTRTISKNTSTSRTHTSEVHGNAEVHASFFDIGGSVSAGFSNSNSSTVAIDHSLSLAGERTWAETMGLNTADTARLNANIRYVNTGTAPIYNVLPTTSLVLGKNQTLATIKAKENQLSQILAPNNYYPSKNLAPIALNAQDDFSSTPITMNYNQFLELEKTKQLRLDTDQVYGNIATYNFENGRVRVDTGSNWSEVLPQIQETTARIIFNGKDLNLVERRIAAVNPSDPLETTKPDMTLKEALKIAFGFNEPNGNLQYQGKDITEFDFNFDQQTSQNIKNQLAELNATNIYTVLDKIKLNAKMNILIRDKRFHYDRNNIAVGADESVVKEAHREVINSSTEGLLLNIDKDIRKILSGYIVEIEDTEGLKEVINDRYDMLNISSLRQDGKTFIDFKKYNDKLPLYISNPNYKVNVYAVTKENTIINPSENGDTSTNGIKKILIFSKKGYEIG

B1: Stx-A5 (VHH)
VHH: SGGGLVQPGGSLRLSCAALEFTLEDYAIAWFRQAPGKEREGVSCISKSGVTKYTDSVKGRFTVARDNAKSTVILQMNNLRPEDTAVYNCAAVRPVFVDSVCTLATRYTYWGEGTQVTVSS
With B1 the “EC50 (read off the curve)” value [1] was about 0.8 nM, the “EC50 (read off the curve)” value [2] was about 0.8 nM and the “EC50 (read off the curve)” value [3] was about 0.8 nM.

B2: Stx-A4 (VHH)
VHH: SGGGLVQPGGSLRLSCAASGFTLGSYHIGWFRHPPGKEREGTSCLSSRGDYTKYAEAVKGRFTISRDNTKSTVYLQMNNLKPEDTGIYVCAAIRPVLSDSHCTLAARYNYWGQGTQVTVSS
For B2, the “EC50 (read off the curve)” value [3] was about 8 nM.

B3: JDO-E9 (VHH)
VHH: QVQLVESGGGLVRPGGSLRLSCVVSGFAYEMPMMGWYRQAPGNQRELVATIGTGGRMNYADSVKGRFTISRDNAKNTVYLQMNSLKPEDTAAYYCKIEFTNYWGQGTQVTVSS
B3: binds [4].

B4: scFv#7 (scFv)
scFv: SYELTQPPSMSVALGQTAKVTCQGDNLENFYVQWHQQKPGQAPVTVIFQDNKRPSGIPDRFSGSNSGNTATLTISGARTEDEADYYCQSGHSSIGGVFGSGTSLTVLGQPAAAGGGGSGGGGSGGGGSARQVQLQESGPSLVKPSQTLSLTCTVSGFSLTGNSVTWVRQAPGNVPEWLGGISRGGRTYYDTALKSRLSITRDTSKRQVSLSLSSVTTEDTAMYFCARSAYSTLYDYEYAADIYDWGPGLLVTVSSTSGAPVPYPDPLEPRAA
For B4, the Kd [5] was about 1 nM.

B5: Stx2-G1 (VHH)
VHH: SGGGLVQPGESLRLSCVASASTFSTSLMGWVRQAPGKGLESVAEVRTTGGTFYAKSVAGRFTISRDNAKNTLYLQMNSLKAEDTGVYYCTAGAGPIATRYRGQGTQVTVSS
With B5 the “EC50 (read off the curve)” value [6] was about 0.1 nM and the “EC50 (read off the curve)” value [2] was about 0.1 nM.

B6: JDQ-B2 (VHH)
VHH: QVQLVESGGGLVQPGGSLRLSCTVSGSIFDLPGMNWYRQAPGAQRELVADISSDGRRTNYADSVKGRFTMSRDNAKKTVYLQMDSLKPDDTAVYYCNVKFTHHWGQGIQVTVSS
B6: binds [4].

B7: JDQ-C5 (VHH)
VHH: QVQLVESGGGLVQPGGSLRLSCTVSGSIFGLPGMSWYRQAPGAQRELVADISSDGGRTHYADSVKGRFTISRDNDKKTVYLQMDSLKPDDTAVYYCNVKFTHHWGQGIQVTVSS
B7: binds [4].

B8: Stx2-D10 (VHH)
VHH: TGGLVQAGGSLRLSCAASGVPFSDYTMAWFRQAPGKEREVVARITWRGGGPYYGNSGNGRFAISRDIAKSMVYLHMDSLKPEDTAVYYCAASRLRPALASMASDYDYWGQGTQVSVSS
B8 was tested, and the “EC50 (read off the curve)” value [1] was about 0.3 nM and the “EC50 (read off the curve)” value [6] was about 0.3 nM.

B9: JIK-B10 (VHH)
VHH: QVQLVETGGGLVQPGGSLRLSCAASGFTFSSYRMSWYRQAAGKERDVVATITANGVPTGYADSVMGRFTISRDNAKNTVYLEMNSLNPEDTAVYYCNAPRLHTSVGYWGQGTQVTVSS
B9: binds [7].

B10: JIJ-F11 (VHH)
VHH: QVQLVESGGGLVQPGGSLRLSCAAPESIVNSRTMAWYRQAPGKQRERVATITTAGSPNYADSVKGRFAISRDNAKNTVYLQMNSLKPEDTAVYYCNTLLSTLPYGQGTQVTVSS
B10: binds [7].

B11: JHE-D9 (VHH)
VHH: QVQLVESGGGLVQPGGSLRLSCAASGFIFSLYTMRWHRQAPGKERELVATITSATGITNYADSVKGRFIISRDDAKKTGYLQMNSLKPEDTAVYYCNAVRTTVSRDYWGQGTQVTVSS
B11: binds [7].

B12: JIJ-B8 (VHH)
VHH: QVQLVESGGGLVQPGGSLSVSCAASGSIARPGAMAWYRQAPGKERELVASITPGGLTNYADSVTGRFTISRDNAKRTVYLQMNSLQPEDTAVYYCHARIIPLGLGSEYRDHWGQGTQVTVSS
B12: binds [7].

B13: JHD-B6 (VHH)
VHH: QVQLVESGGGLVQPGGSLRLSCAASGSSFSRYAMRWYRQAPGKQRELVANINSRGTSNYADSVKGRFTISRDNAKNTVYLQMNSLKPEDTAVYYCNAEWLGRSEPSWGQGTQVTVSS
B13: binds [7].

B14: JIK-F4 (VHH)
VHH: TGGGLVQAGGSLRLSCAASGRYAMGWFRQAPGKEREFVATISRSGAIREYADSVKGRFTISRDGAENTVYLEMNSLKPDDTAIYVCAEGRGATFNPEYAYWGQGTQVTVSS
B14: binds [7].

B15: JIJ-E9 (VHH)
VHH: QVQLVETGGLVQPGGSLRLSCAASRSTTATIYSMNWYRQAPGKQRELVAGMTSDGQTNYATSVKGRFTISRDNAKNTVYLLMNSLKLEDTAVYYCYVKPWRLQGWDYWGQGTQVTVSS
B15: binds [7].

B16: JIK-B12 (VHH)
VHH: QVQLVESGGGLVQAGNSLRLSCTASGVIFSIYTMGWFRQAPGKEREFVAAIGVADGTALVADSVTGRFTISRDNAKNTVYLHMNSLKPEDTAVYSCAAYLSPRVQSPYITDSRYQLWGQGTQVTVSS
B16: binds [7].

B17: JIJ-D3 (VHH)
VHH: QVQLVETGGLVQPGGSLRLSCAASGLTFSSTAMAWFRQAPGKEREFVARISGAGITIYYSDSVKDRFTISRNNVENTVYLQMNSLKTEDTAVYYCAARRNTYTSDYNIPARYPYWGQGTQVTVSS
B17: binds [7].

B18: JDQ-F9 (VHH)
VHH: QVQLVESGGGLVQDGGSLRLSCTTSGSIDSFNAIEWYRQAPGKQRELVASISSDGRRTNYADSVKGRFTISGDNAKNTVYLQMNSLKPEDTAVYYCHRPFTHYWGQGTQVTVSS
B18: binds [4].

B19: JIJ-C11 (VHH)
VHH: QVQLVETGGGLVQPGGSLGLSCVVASGRSINNYGMGWYRQAPGKQRELVAQISSGGTTNYAGSVEGRFTISRDNVKKMVYLQMNSLKPEDTAVYYCNSLLRTFSWGQGTQVTVSS
B19: binds [7].

B20: JIK-B8 (VHH)
VHH: QVQLVESGGGLVQPGGSLGLSCVVASERSINNYGMGWYRQAPGKQRELVAQISSGGTTNYADSVEGRFTISRDNVKKMVHLQVNSLKPEDTAVYYCNSLLRTFSWGQGTQVTVSS
B20: binds [7].

B21: JIJ-A12 (VHH)
VHH: QVQLVESGGGLVQPGGSLRLSCAASGIIFSIYTMGWYRQAPGKQRELVAAIPSGPSANATDSVGGRFTITRDNAENTVYLQMNDLKPEDTAVYYCNARRGPGIKNYWGQGTQVTVSS
B21: binds [7].

B22: VNA-TcdA (toxin A binding heterodimer, AH3+AA6) (bispecific antibody)
chain: QGVQSQLQLVESGGGLVQPGGSLRLSCAASGFTLDYSSIGWFRQAPGKEREGVSCISSSGDSTKYADSVKGRFTTSRDNAKNTVYLQMNSLKPDDTAVYYCAAFRATMCGVFPLSPYGKDDWGKGTLVTVSSEPKTPKPQGGGGSGGGGSGGGGSQGVQSQVQLVESGGGLVQPGGSLRLSCAASGFTFSDYVMTWVRQAPGKGPEWIATINTDGSTMRDDSTKGRFTISRDNAKNTLYLQMTSLKPEDTALYYCARGRVISASAIRGAVRGPGTQVTVSSEPKTPKPQ
B22 was tested, and the “EC50 (read off the curve)” value [8] was about 2 nM and the binding result [9] was “no binding (tested: up to 125 nM)”.
